According to patent US20040043378:

Biological target: T1, wild type HIV-1 Tat protein, FLAG-tagged, expressed in cells
T1 chain: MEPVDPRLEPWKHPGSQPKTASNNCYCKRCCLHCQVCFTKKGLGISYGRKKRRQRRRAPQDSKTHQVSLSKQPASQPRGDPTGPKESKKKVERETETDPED

B1: P/CAF (p300/CBP-associated factor), HA-tagged, expressed in cells (protein)
chain: MSEAGGAGPGGCGAGAGAGAGPGALPPQPAALPPAPPQGSPCAAAAGGSGACGPATAVAAAGTAEGPGGGGSARIAVKKAQLRSAPRAKKLEKLGVYSACKAEESCKCNGWKNPNPSPTPPRADLQQIIVSLTESCRSCSHALAAHVSHLENVSEEEMNRLLGIVLDVEYLFTCVHKEEDADTKQVYFYLFKLLRKSILQRGKPVVEGSLEKKPPFEKPSIEQGVNNFVQYKFSHLPAKERQTIVELAKMFLNRINYWHLEAPSQRRLRSPNDDISGYKENYTRWLCYCNVPQFCDSLPRYETTQVFGRTLLRSVFTVMRRQLLEQARQEKDKLPLEKRTLILTHFPKFLSMLEEEVYSQNSPIWDQDFLSASSRTSQLGIQTVINPPPVAGTISYNSTSSSLEQPNAGSSSPACKASSGLEANPGEKRKMTDSHVLEEAKKPRVMGDIPMELINEVMSTITDPAAMLGPETNFLSAHSARDEAARLEERRGVIEFHVVGNSLNQKPNKKILMWLVGLQNVFSHQLPRMPKEYITRLVFDPKHKTLALIKDGRVIGGICFRMFPSQGFTEIVFCAVTSNEQVKGYGTHLMNHLKEYHIKHDILNFLTYADEYAIGYFKKQGFSKEIKIPKTKYVGYIKDYEGATLMGCELNPRIPYTEFSVIIKKQKEIIKKLIERKQAQIRKVYPGLSCFKDGVRQIPIESIPGIRETGWKPSGKEKSKEPRDPDQLYSTLKSILQQVKSHQSAWPFMEPVKRTEAPGYYEVIRFPMDLKTMSERLKNRYYVSKKLFMADLQRVFTNCKEYNAAESEYYKCANILEKFFFSKIKEAGLIDK
- Superinduction of Tat transactivation activity: as much as a 30-fold increase upon P/CAF stimulation
